According to US20140219992:
Residue numbers refer to the chain shown, from its start. Numbers in names are those of the source.

T1: fluorogenic peptide substrate IX, Mca-K-P-L-G-L-Dpa-A-R-NH2
T1 chain: KPLGLAR

B1: wild-type human matrix metalloprotease 1 (hMMP-1), purified and trypsin-activated (protein)
chain: FVLTEGNPRWEQTHLTYRIENYTPDLPRADVDHAIEKAFQLWSNVTPLTFTKVSEGQADIMISFVRGDHRDNSPFDGPGGNLAHAFQPGPGIGGDAHFDEDERWTNNFREYNLHRVAAHELGHSLGLSHSTDIGALMYPSYTFSGDVQLAQDDIDGIQAIYGRSQNPVQPIGPQTPKACDSKLTFDAITTIRGEVMFFKDRFYMRTNPFYPEVELNFISVFWPQLPNGLEAAYEFADRDEVRFFKGNKYWAVQGQNVLHGYPKDIYSSFGFPRTVKHIDAALSEENTGKTYFFVANKYWRYDEYKRSMDPGYPKMIAHDFPGIGHKVDAVFMKDGFFYFFHGTRQYKFDPKTKRILTLQKANSWFNCRKN
B2: MMP-1 mutant GVSK (G159V/S208K), purified and trypsin-activated (protein)
chain: B1 chain with G79V, S128K

Tests used:
[1] = target: T1, fluorogenic peptide substrate IX, …
[2] = target: serum-derived protein (Zucker rat)

Protein | KM (µM), enzyme kinetics at 1 mM Ca^2+, 37° C. [1] | KM (µM), enzyme kinetics at 10 mM Ca^2+, 37° C. [1] | enzymatic activity against the fluorogenic peptide substrate after incubation in 10% Zucker rat serum, 1 mM Ca^2+, 25° C. [2] | enzymatic activity lost after 15 minutes in 10% Zucker rat serum, 1 mM Ca^2+, 25° C. [2] | enzymatic activity remaining after 30 minutes in 10% Zucker rat serum, 1 mM Ca^2+, 25° C. [2] | enzymatic activity remaining after 2 hours in 10% Zucker rat serum, 1 mM Ca^2+, 25° C. [2] | enzymatic activity remaining after 2 hours in 10% Zucker rat serum, 10 mM Ca^2+, 25° C. [2]
B1 | 20.6 µM | 21.1 µM | The activity of MMP-1 in 1 mM Ca^2+ buffer was unaffected by incubation with serum over the course of the study |  |  |  | 
B2 | 16.5 µM | 11 µM |  | After 15 minutes of serum incubation, one-third of the activity of GVSK in 1 mM Ca^2+ was lost | less than 50% of activity remained after 30 minutes | only approximately 17% of the activity of GVSK in 1 mM Ca^2+ remained | approximately 74% of the original activity remaining by the 2 hour time point
